# Results from patent US9144594B2, “Cathepsin L mediated diseases and associated methods and products” (University of Miami, priority 2005, dated 2015).
# Entries after “also recorded” stand apart in the source; their conditions may differ.
# Assays:
# [1] = tested on: mice; assay: Protein in urine after in vivo gene delivery of dynamin mutants into healthy mice (Bradford); set-up: species or system mouse; settings: for proteinuria after gene delivery, in words: healthy mice
# Description: Next, the level of urinary protein loss following gene delivery of dynamin mutants was examined (Table 2). […] The expression of K44A was associated with severe proteinuria (1.18 mg/ml) at peak gene expression time of 10 hours post injection. The reduction in gene expression was paralleled by a reduction in proteinuria (0.77 mg/ml). Gene transfer of dynR725A caused an increase in proteinuria (0.58 mg/ml). Although this was not a significant increase, it is probable that it is a consequence of the partial podocyte FP effacement seen after gene transfer of dynR725A, and due to increase in the stress fibers formation observed in cultured podocytes.
# To explore whether functional dynamin is required for the maintenance of FP morphology in healthy kidneys, it was examined whether expression of dominant negative dynK44A disrupts podocyte function. […] In contrast, podocin driven expression of dynK44A, the dynamin mutant that cannot bind GTP, caused FP effacement (FIG. 21B) and proteinuria (1.1±0.26 mg/ml) at the peak of gene expression […] after gene delivery (FIGS. 21D and 25C). […] In other words, tight regulation of the life-time of the GTP-bound form of dynamin appears to be required for normal FP morphology and ultrafiltration.
# (§1) CatL plasmids encoding short and long CatL (Goulet et al., Biol Chem 387, 1285-1293 (2004)), Dyn1 plasmids (pcDNA-driven) or p2.5 Podocin-driven (Moeller et al., Genesis 35, 39-42 (2003)) were introduced into mice (n>10, each construct) using the TransIT in vivo gene delivery system according to the manufacturer's instruction (Mirus Bio Corporation, Madison, Wis.). 10 and 24 h after gene delivery, proteinuria was assessed by Multistix 8 SG strips (Bayer Corporation, Elkhart, Ind.), and Bradford protein assay (Sigma, Saint Louis, Mo.). From the same urines the protein creatinine ratio was determined with Albuwell M and Creatinine Companion protein creatinine ELISA kits (Exocell Inc., Philadelphia, Pa.).
# [2] = tested on: podocytes; assay: Actin stress fiber staining in cultured podocytes; type: cell-based, mouse; settings: for actin stress fibers, in words: overexpression in cultured podocytes
# Excerpt: This study examined the role of dynamin in actin dynamics of podocytes. An adenoviral expression system was utilized to obtain expression of various dynamin mutants with more than 90% infection efficiency in cultured differentiated mouse podocytes and analyzed the organization of the actin cytoskeleton, their migratory and endocytotic behavior (FIG. 1). […] This type of actin rearrangement in cultured podocytes is resembling actin rearrangement in damaged podocytes during proteinuria in situ (Smoyer and Mundel, 1998). […] Thus, the consequence on actin dynamics in podocytes was examined when dynamin is hyperactive by expressing known dominant activators, dynK694A and dynR725A (SEQ ID NO.4). Both mutants are predicted to live longer in the GTP-bound form. […] To further examine this surprising phenotype in a biological context, motility assays were performed next using a modified Boyden Chamber assay.
# Since podocyte FP effacement is primarily driven by the rearrangement of the actin cytoskeleton (Asanuma et al., 2006), actin morphology was examined in cultured podocytes expressing different dynamin mutants. Podocytes were infected with various dynamin constructs using an adenoviral expression system that enables greater than 90% efficiency of infection. The experiments were performed using dyn1 (FIG. 22) as well as dyn2, with identical results. […] Thus, treatments which abolish actin stress fibers in cultured podocytes cause proteinuria in mice. […] Consistent with this notion, the deleterious effects of LPS (which reduces stress fibers) on kidney function were ameliorated by expression of dynR725A (which induces stress fibers).
# Podocytes were grown under non-permissive conditions to 70% confluence. Cells were washed twice with 1×PBS and infected with 1.2 ml of serum-free DMEM media containing 100 μl transactivator virus, 100 μl virus expressing dyn1 or dyn2. After 2 h of infection at 37° C., media containing virus was replaced with full DMEM. If cells were treated with LPS or PAN, 50 μg/ml of LPS or 50 μg/ml PAN was added at this point. 18-24 h post-infection, cells were detached using trypsin and processed either for subcellular fractionation or tested in the motility assays as described in (Reiser et al., J Biol Chem 279, 34827-34832 (2004)). When stated, 20 μM of Z-FF-FMK CatL specific inhibitor (Calbiochem, San Diego, Calif.) was added simultaneously with addition of LPS.
# [3] = tested on: CatL; assay: Dynamin p40 fragment in kidney extracts after gene delivery and LPS injection; type: in vivo, mouse; settings: LPS injected at the time of gene delivery
# Excerpt: Next the cleavage pattern of dyn1 in kidney extracts following LPS injection was examined. Kidney cytosols were probed with antibody against the GTPase domain of dynamin, which detects p40. […] Western blotting also detected a dynamin fragment of ˜55 kD. As in cultured podocytes, the presence of this fragment was LPS- and CatL-independent (FIGS. 20B, lane 5 and 20C, lanes 1 and 2), further supporting the idea that it is generated by other proteases during tissue preparation.
# Four mice kidneys were homogenized in buffer containing 20 mM HEPES pH 7.5, 100 mM NaCl, 1 mM MgCl2, 1 mM PMSF, proteinase inhibitors, calpain inhibitor (Calbiochem, San Diego, Calif.) and E-64d using dounce homogenizer. Subsequently, cytosol was centrifuged for 10 min at 7000 rpm. Proteins were solubilized by 1% Triton X, 1 h at 4° C., before it was spun at 50,000 rpm for 1 h.
# as §1
# [4] = Table 2A, gene delivery into mice, t = 0
# [5] = Table 2A, gene delivery into mice, t = 10 h
# [6] = Table 2A, gene delivery into mice, t = 24 h
# [7] = Table 5 Basic Phenotype, podocin-driven vectors, t = 14 h
# Sequence of CatL (P06797 114-333 limits assumed): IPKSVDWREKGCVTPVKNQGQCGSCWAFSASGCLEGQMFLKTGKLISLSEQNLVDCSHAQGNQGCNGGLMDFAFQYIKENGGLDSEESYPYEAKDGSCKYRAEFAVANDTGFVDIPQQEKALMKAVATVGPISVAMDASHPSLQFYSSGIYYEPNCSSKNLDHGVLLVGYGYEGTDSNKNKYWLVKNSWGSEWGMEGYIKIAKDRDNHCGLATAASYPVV
Molecule,"Protein in the urine [1, 4]","Protein in the urine [1, 5]","Protein in the urine [1, 6]","proteinuria after gene delivery, in words [1]","actin stress fibers, in words [2]","generation of p40 in kidney extracts, in words [3]","Protein in the urine ([1]; Table 2A, gene delivery into mice, t = 10 h, listed as Dyn K44A)","Protein in the urine ([1]; Table 2A, gene delivery into mice, t = 10 h, listed as K44A)","Protein in the urine ([1]; Table 2A, gene delivery into mice, t = 24 h, listed as Dyn K44A)","Protein in the urine ([1]; Table 2A, gene delivery into mice, t = 24 h, listed as K44A)","Protein in the urine [1, 7]","Protein in the urine ([1]; Table 2A, gene delivery into mice, t = 10 h, listed as Dyn R725A)","loss of stress fibers under LPS or PAN, in words ([2]; LPS and PAN treatment)"
dynWT: wild type dynamin overexpressed by adenovirus or delivered as dynamin 1 cDNA,0.27 ± 0.06 mg/mL,0.37 ± 0.08 mg/mL,0.42 ± 0.12 mg/mL,did not lead to increase of the protein in urine,did not dramatically alter stress fiber pattern; also recorded: did not significantly alter the F-actin staining pattern,generation of p40,,,,,,,
"dynK44A: dominant-negative dynamin mutant that cannot bind GTP (protein, UniProt Q05193 1-864, looked up, variant K44A) Dynamin-1: MGNRGMEDLIPLVNRLQDAFSAIGQNADLDLPQIAVVGGQSAGASSVLENFVGRDFLPRGSGIVTRRPLVLQLVNATTEYAEFLHCKGKKFTDFEEVRLEIEAETDRVTGTNKGISPVPINLRVYSPHVLNLTLVDLPGMTKVPVGDQPPDIEFQIRDMLMQFVTKENCLILAVSPANSDLANSDALKVAKEVDPQGQRTIGVITKLDLMDEGTDARDVLENKLLPLRRGYIGVVNRSQKDIDGKKDITAALAAERKFFLSHPSYRHLADRMGTPYLQKVLNQQLTNHIRDTLPGLRNKLQSQLLSIEKEVEEYKNFRPDDPARKTKALLQMVQQFAVDFEKRIEGSGDQIDTYELSGGARINRIFHERFPFELVKMEFDEKELRREISYAIKNIHGIRTGLFTPDMAFETIVKKQVKKIREPCLKCVDMVISELISTVRQCTKKLQQYPRLREEMERIVTTHIREREGRTKEQVMLLIDIELAYMNTNHEDFIGFANAQQRSNQMNKKKTSGNQDEILVIRKGWLTINNIGIMKGGSKEYWFVLTAENLSWYKDDEEKEKKYMLSVDNLKLRDVEKGFMSSKHIFALFNTEQRNVYKDYRQLELACETQEEVDSWKASFLRAGVYPERVGDKEKASETEENGSDSFMHSMDPQLERQVETIRNLVDSYMAIVNKTVRDLMPKTIMHLMINNTKEFIFSELLANLYSCGDQNTLMEESAEQAQRRDEMLRMYHALKEALSIIGDINTTTVSTPMPPPVDDSWLQVQSVPAGRRSPTSSPTPQRRAPAVPPARPGSRGPAPGPPPAGSALGGAPPVPSRPGASPDPFGPPPQVPSRPNRAPPGVPSRSGQASPSRPESPRPPFDL",0.23 ± 0.11 mg/mL,,,,loss of stress fibers; also recorded: abolished stress fibers,,1.18 ± 0.22 mg/mL,1.18 mg/mL,0.77 ± 0.11 mg/mL,0.77 mg/mL,1.1 ± 0.26 mg/mL,,
"dynR725A: dynamin mutant (SEQ ID NO.4) with impaired GTP hydrolysis capacity (protein, listed as Homo sapiens) MGNRGMEDLIPLVNRLQDAFSAIGQNADLDLPQIAVVGGQSAGKSSVLENFVGRDFLPRGSGIVTRRPLVLQLVNATTEYAEFLHCKGKKFTDFEEVRLEIEAETDRVTGTNKGISPVPINLRVYSPHVLNLTLVDLPGMTKVPVGDQPPDIEFQIRDMLMQFVTKENCLILAVSPANSDLANSDALKVAKEVDPQGQRTIGVITKLDLMDEGTDARDVLENKLLPLRRGYIGVVNRSQKDIDGKKDITAALAAERKFFLSHPSYRHLADRMGTPYLQKVLNQQLTNHIRDTLPGLRNKLQSQLLSIEKEVEEYKNFRPDDPARKTKALLQMVQQFAVDFEKRIEGSGDQIDTYELSGGARINRIFHERFPFELVKMEFDEKELRREISYAIKNIHGIRTGLFTPDMAFETIVKKQVKKIREPCLKCVDMVISELISTVRQCTKKLQQYPRLREEMERIVTTHIREREGRTKEQVMLLIDIELAYMNTNHEDFIGFANAQQRSNQMNKKKTSGNQDEILVIRKGWLTINNIGIMKGGSKEYWFVLTAENLSWYKDDEEKEKKYMLSVDNLKLRDVEKGFMSSKHIFALFNTEQRNVYKDYRQLELACETQEEVDSWKASFLRAGVYPERVGDKEKASETEENGSDSFMHSMDPQLERQVETIRNLVDSYMAIVNKTVRDLMPKTIMHLMINNTKEFIFSELLANLYSCGDQNTLMEESAEQAQRADEMLRMYHALKEALSIIGDINTTTVSTPMPPPVDDSWLQVQSVPAGRRSPTSSPTPQRRAPAVPPARPGSRGPAPGPPPAGSALGGAPPVPSRPGASPDPFGPPPQVPSRPNRAPPGVPSRSGQASPSRPESPRPPFDL",0.26 ± 0.13 mg/mL,0.58 mg/mL,0.20 ± 0.05 mg/mL,,significantly induced stress fibers formation; also recorded: decreasing cortical actin and inducing stress fibers,did not result in generation of p40,,,,,0.88 ± 0.21 mg/mL,0.58 ± 0.17 mg/mL,prevented the loss of actin stress fibers; also recorded: inhibited the ability of LPS to reduce stress fibers
"dynL356Q, G358V: dynamin mutant (SEQ ID NO.3) not recognized by cathepsin L; ELSGGA mutated to EQSVGA (protein, listed as Homo sapiens) MGNRGMEDLIPLVNRLQDAFSAIGQNADLDLPQIAVVGGQSAGKSSVLENFVGRDFLPRGSGIVTRRPLVLQLVNATTEYAEFLHCKGKKFTDFEEVRLEIEAETDRVTGTNKGISPVPINLRVYSPHVLNLTLVDLPGMTKVPVGDQPPDIEFQIRDMLMQFVTKENCLILAVSPANSDLANSDALKVAKEVDPQGQRTIGVITKLDLMDEGTDARDVLENKLLPLRRGYIGVVNRSQKDIDGKKDITAALAAERKFFLSHPSYRHLADRMGTPYLQKVLNQQLTNHIRDTLPGLRNKLQSQLLSIEKEVEEYKNFRPDDPARKTKALLQMVQQFAVDFEKRIEGSGDQIDTYEQSVGARINRIFHERFPFELVKMEFDEKELRREISYAIKNIHGIRTGLFTPDMAFETIVKKQVKKIREPCLKCVDMVISELISTVRQCTKKLQQYPRLREEMERIVTTHIREREGRTKEQVMLLIDIELAYMNTNHEDFIGFANAQQRSNQMNKKKTSGNQDEILVIRKGWLTINNIGIMKGGSKEYWFVLTAENLSWYKDDEEKEKKYMLSVDNLKLRDVEKGFMSSKHIFALFNTEQRNVYKDYRQLELACETQEEVDSWKASFLRAGVYPERVGDKEKASETEENGSDSFMHSMDPQLERQVETIRNLVDSYMAIVNKTVRDLMPKTIMHLMINNTKEFIFSELLANLYSCGDQNTLMEESAEQAQRRDEMLRMYHALKEALSIIGDINTTTVSTPMPPPVDDSWLQVQSVPAGRRSPTSSPTPQRRAPAVPPARPGSRGPAPGPPPAGSALGGAPPVPSRPGASPDPFGPPPQVPSRPNRAPPGVPSRSGQASPSRPESPRPPFDL",0.22 ± 0.06 mg/mL,0.33 ± 0.21 mg/mL,0.40 ± 0.15 mg/mL,did not result in proteinuria,did not significantly alter the F-actin staining pattern,not generated,,,,,,,
